# In patent US20150246949A1, “Desmoglein 2 (DSG2) Binding Proteins and Uses Therefor” (UNIVERSITY OF WASHINGTON THROUGH ITS CENTER FOR …, priority 2012, published 2015):
# Where a chain is given by its changes, count along the chain named. Entries after “also recorded” stand apart in the source; their conditions may differ.
# B1: JO-1: recombinant protein with the Ad3 fiber knob and a domain for self-dimerization of trimeric knobs (SEQ ID NO:27) (protein)
# chain: MKVSALKEKVSALKEKVSALKEKVSALKEKVSALKEGSGGGSGGGSGGGSNSIALKNNTLWTGPKPEANCIIEYGKQNPDSKLTLILVKNGGIVNGYVTLMGASDYVNTLFKNKNVSINVELYFDATGHILPDSSSLKTDLELKYKQTADFSARGFMPSTTAYPFVLPNAGTHNENYIFGQCYYKASDGALFPLEVTVMLNKRLPDSRTSYVMTFLWSLNAGLAPETTQATLITSPFTFSYIREDD
# B2: JO-4 (protein)
# chain: B1 chain with Y177F
# Key:
# ovc316 xenograft tumors = test: Enhancement of PLD therapy in ovc316 ovarian cancer xenograft model; type: in vivo, CB17 mice; conditions: weekly
# Experimental: (§1) FIG. 10. Combination of affinity-enhanced JO-1 versions with chemotherapy. A) Enhancement of irinotecan (I) therapy. The experimental setting was the same as in FIG. 5B. […] N=5. […] Mammary fat pad tumors were established from primary ovarian cancer ovc316 cells. Treatment was started when tumors reached a volume of 100 mm^3 Mice were injected intravenously with 2 mg/kg JO-1 or with 0.5 mg/kg JO-4, followed by an intravenous injection of PEGylated liposomal doxorubicin (PLD) (1 mg/kg) one hour later. Treatment was repeated weekly. […] A total of 4×10^6 TNBC MDA-MB-231 cells were injected into the mammary fat pad of CB17 SCID-beige mice. JO-4 (2 mg/kg) was intravenously injected 1 hour before the application of cetuximab (C) (10 mg/kg, i.p.) and nab-paclitaxel (nab-P) (5 mg/kg, i.v). Treatment was given weekly. N=10 P<0.01 at day 25 for nab-P+C vs JO-4+nab-P+C.
# A549, MDA-MB-231, and ovc316 xenograft tumors were established by injection of the corresponding tumor cells into the mammary fat pad (1:1 with Matrigel) of CB17 mice. TC1-DSG2 tumors were established by subcutaneous injection of TC1-DSG2 cells into DSG2 transgenic mice. […] Tumor volumes were measured three times a week. […]
# A549 xenograft tumors = test: Enhancement of irinotecan therapy in A549 xenograft tumors; type: in vivo, CB17-SCID/beige mice; conditions: 2 mg/kg i.v. one hour before irinotecan 37.5 mg/kg i.v.; days 15 and 25; N=5
# Experimental: FIG. 5. Correlation of reduced DSG2 binding with the ability to open epithelial junctions. A) Transepithelial electrical resistance (TEER) measured on polarized colon cancer T84 cells. Cells were cultured in transwell chambers until the TEER was constant, i.e. tight junctions had formed. A total of 5 μg of dimeric Ad3 fiber knobs in PBS was then added for 1 hour to the apical chamber. TEER was measured at the indicated time points. N=6. For time points 1.5 and 4 hours the difference between JO-1 vs D261N and N186D was significant (p<0.01). The arrows indicate the addition and removal of Ad3 fiber knobs. B) Enhancement of irinotecan therapy. A total of 4×10^6 A549 cells were injected subcutaneously into CB17-SCID/beige mice. Once the tumor reached a volume of ˜100 mm^3 (day 15 after implantation), the mice were injected intravenously with 2 mg/kg JO-1, E299V, N186D, or PBS, followed by an intravenous injection of irinotecan (37.5 mg/kg) one hour later. The treatment was repeated on day 25. N=5. […] The difference between “irinotecan” vs “JO-1+irinotecan” was significant (p<0.01) from day 20 on.
# as §1
# A549, MDA-MB-231, and ovc316 xenograft tumors were established by injection of the corresponding tumor cells into the mammary fat pad (1:1 with Matrigel) of CB17 mice. TC1-DSG2 tumors were established by subcutaneous injection of TC1-DSG2 cells into DSG2 transgenic mice. JO-0, JO-1, JO-2, or JO-4 were intravenously injected one hour before the application of chemotherapeutic drugs: Irinotecan/Camptosar™ (Pfizer Inc., Groton, Conn.), PEGylated liposomal doxorubicin/Lipodox™ (Sun Pharmaceuticals IN, India), cetuximab/Erbitux™ (ImClone, Somerville, N.J.), nanoparticle albumin conjugated paclitaxel/Abraxane™ (Abraxis Biosciences, Summit N.J.). Tumor volumes were measured three times a week. Each treatment group consisted of a minimum of 5 mice.
# TC1-hDSG2 tumors = test: Repeated-cycle PLD therapy study in immunocompetent mice with TC1-hDSG2 tumors; type: in vivo, hDSG2 transgenic mice; conditions: 2 mg/kg i.v. one hour before PLD/Doxil 1.5 mg/kg i.v.; 3rd and 4th cycles days 28 and 35; N=10
# Experimental: FIG. 11. Pharmacokinetics, toxicity, and immunogenicity of JO-4. A) Serum clearance of JO-1 and JO-4. hDSG2 transgenic mice with subcutaneous TC1-hDSG2 tumors (˜600 mm^3) were intravenously injected with JO-1 or JO-4 (2 mg/kg) and serum samples were analyzed for by ELISA. N=3. Note that the y-axis has a log scale. B) Lymphocyte and platelet counts in hDSG2/TC1-hDSG2 transgenic mice after JO-1 or JO-4 injection. N=3. C) Therapy studies in immunocompetent hDSG2 transgenic mice with TC1-hDSG2 tumors. When tumors reached a volume of ˜80 mm^3, JO-1 or JO-4 (2 mg/kg) or PBS was injected intravenously followed one hour later by PLD/Doxil (i.v. 1.5 mg/kg). Treatment was repeated as indicated by arrows. Tumors were then allowed to re-grow for about two weeks. From day 15 on serum anti-JO-1/J)-4 antibodies were detectable by ELISA. Two more treatment cycles were performed at day 28 and day 35. […] The difference between JO-1/PLD vs JO-4/PLD is significant from day 31 on. N=10.
# A549, MDA-MB-231, and ovc316 xenograft tumors were established by injection of the corresponding tumor cells into the mammary fat pad (1:1 with Matrigel) of CB17 mice. […] Tumor volumes were measured three times a week. […]
# JO-1 and JO-4 are virus-derived proteins and immunogenic. In immunocompetent mice, serum IgG antibodies against these proteins can be detected by ELISA two weeks after injection (5). […]
Molecule,Enhancement of PLD therapy (ovc316 xenograft tumors; 2 mg/kg i.v. one hour before PLD 1 mg/kg i.v.),Enhancement of irinotecan therapy (A549 xenograft tumors),Enhancing effect on PLD therapy over repeated treatment cycles (TC1-hDSG2 tumors),Enhancement of PLD therapy (ovc316 xenograft tumors; 0.5 mg/kg i.v. one hour before PLD 1 mg/kg i.v.)
B1,significantly increased the treatment efficiency,enhanced irinotecan therapy; also recorded: significant,enhancing effect on PLD therapy; also recorded: continued to be effective after multiple treatment cycles,–
B2,–,increased irinotecan therapy significantly more than JO-1; also recorded: significantly more efficient than JO-2; also recorded: significant from day 20 on,enhancing effect on PLD therapy; also recorded: significantly stronger; also recorded: continued to be effective after multiple treatment cycles,even greater stimulating effect on PLD therapy; also recorded: enhances PLD therapy in an ovarian cancer model at lower dose than JO-1
